In publication PMC8546699, “Ehrlichia chaffeensis TRP120 Is a Wnt Ligand Mimetic That Interacts with Wnt Receptors and Contains a Novel Repetitive Short Linear Motif That Activates Wnt Signaling” (mSphere, 2021):

T1: recombinant, full-length TRP120 (rTRP120-FL) (Ehrlichia chaffeensis, UniProt Q2GI62 1-548)
T1 construct: Ehrlichia chaffeensis tandem repeat protein TRP120, full-length gene cloned upstream of a 6xHis tag; Thioredoxin fusion from the vector pBAD/Thio-TOPO; also called rTRP12-FL; source: E. coli TOP10, pBAD/Thio-TOPO, purified (His-tag purification resin); not shown: His6, C-terminal, kept
T1 sequence: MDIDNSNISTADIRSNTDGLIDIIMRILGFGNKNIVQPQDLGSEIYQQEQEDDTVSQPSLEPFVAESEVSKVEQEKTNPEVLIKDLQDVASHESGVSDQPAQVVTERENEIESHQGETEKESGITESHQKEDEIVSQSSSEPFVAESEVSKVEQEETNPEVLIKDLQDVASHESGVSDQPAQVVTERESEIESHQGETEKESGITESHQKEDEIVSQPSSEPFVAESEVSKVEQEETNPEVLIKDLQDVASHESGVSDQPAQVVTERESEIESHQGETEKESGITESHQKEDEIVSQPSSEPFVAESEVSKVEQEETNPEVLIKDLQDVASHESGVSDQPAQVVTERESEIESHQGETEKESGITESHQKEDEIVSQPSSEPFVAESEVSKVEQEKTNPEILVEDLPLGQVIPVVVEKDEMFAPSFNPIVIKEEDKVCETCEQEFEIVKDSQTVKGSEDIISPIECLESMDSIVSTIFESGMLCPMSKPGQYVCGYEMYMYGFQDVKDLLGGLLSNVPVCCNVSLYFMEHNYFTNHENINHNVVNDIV


Key:
[1] = target: rTRP120-tandem repeat domain truncate construct (rTRP120-TRD) (Ehrlichia chaffeensis) (UniProt Q2GI62); assay: SPR; His-tagged rTRP120-FL or rTRP120-TRD (0.1 µM) captured on Ni-NTA sensor chip; rFzd-ECD 0 to 1,600 nM flowed over; Biacore T100; 100 mM NaPO4 pH 7.4, 400 mM NaCl, 40 µM EDTA, 0.005% Tween 20; 1:1 fit
[2] = target: T1, recombinant, full-length TRP120 …; assay: as above; conditions: both partners purified

Row | Molecule | Kd [1] | Kd [2]
1 | recombinant Fzd5 extracellular domain (rFzd5-ECD) (from UniProt Q13467 27-238) (domain or fragment) | 1.35 µM | –
2 | recombinant Fzd5 extracellular domain (rFzd5-ECD) (domain or fragment, UniProt Q13467 27-238, looked up, Frizzled-5, recombinant extracellular domain (methods: 'cysteine-rich domain-truncated protein'); commercial Frizzled ECD proteins are often Fc chimeras and may be mouse (surmise); also called Fzd5-CRD; source: bought: R&D Systems) ASKAPVCQEITVPMCRGIGYNLTHMPNQFNHDTQDEAGLEVHQFWPLVEIQCSPDLRFFLCSMYTPICLPDYHKPLPPCRSVCERAKAGCSPLMRQYGFAWPERMSCDRLPVLGRDAEVLCMDYNRSEATTAPPRPFPAKPTLPGPPGAPASGGECPAGGPFVCKCREPFVPILKESHPLYNKVRTGQVPNCAVPCYQPSFSADERTFATFW | – | 46.3 µM
